{"source": "paper PMC4332860", "target": "Human coagulation factor X (human)", "assay": "SPR; human FX amine-coupled to a CMD500m chip; vector particles 1.25x10^8 to 1x10^9 physical particles per millilitre passed for 3 min at 25 μl/min; 10 mM HEPES pH 7.4, 150 mM NaCl, 5 mM CaCl2, 0.005% Tween 20; reference flow cell subtracted"}
{"substance": "AdGFPhCKS17, ΔE1/E3 Ad5 vector particles with CKS17 peptide in place of hexon HVR5 (from UniProt P04133 1-952; P11818 1-581) (complex)", "values": [{"measurement": "percent reduction of binding against AdGFPhWt", "value": 30, "unit": "%"}]}
